According to patent US20250376498A1, “FUSION PROTEINS COMPRISING AN IMPROVED GLP-1 RECEPTOR AGONIST AND USES THEREOF” (Guangzhou Innogen Pharmaceutical Group Co., Ltd., priority 2022, published 2025):
Where “and” joins values, the source holds several entries; their conditions need not be identical. Equal entries are not always repeated.

Columns and labels:
Format in all cases: in vivo
obese rhesus monkeys = test: Obese rhesus monkeys, body weight; details: for body weight decrease compared to baseline: at D28
From the text: The obese rhesus monkeys used in this study were sourced from Sichuan Primate Biotechnology Co., Ltd. Fifteen male obese rhesus monkeys, aged 8-21 years (equivalent to 30-60 years in humans), with a body weight of 9.25-15.70 kg, fasting plasma glucose (FPG) levels between 5.50-8.58 mmol/L, and HbA1c levels between 4.5-5.0%, were selected. These monkeys were within the first year of disease onset and had not received any medication. Their liver and kidney functions were normal. The animals were stratified based on FPG levels and randomly assigned to different groups. The selected animals underwent an intravenous glucose tolerance test (IVGTT) to measure blood glucose and insulin levels before the administration of the test compounds. The experimental groups included a placebo group and two YN-011 treatment groups: YN-011 50 μg/kg and YN-011 25 μg/kg, with 5 animals in each group. The treatments were administered via subcutaneous injections (SC) once a week for 4 consecutive weeks, specifically on Day 0 (DO), Day 7 (D7), Day 14 (D14), and Day 21 (D21).

NASH Rhesus monkeys = test: NASH Rhesus monkeys, MRI-PDFF quantitative analysis of hepatic steatosis; details: for percentage reduction of MRI-PDFF liver fat compared to baseline: end of the treatment; for Change rate (%) of liver lipid content: (current - baseline)/baseline
From the text: The GE 3.0T MRI scanner (750W3T MRI, GE Healthcare) was used for liver imaging in this study. The IDEAL-IQ sequence was employed, which combines the IDEAL (Iterative Decomposition of water and fat with Echo Asymmetry and Least-squares estimation) technique with fast three-dimensional multi-echo imaging. This technique includes multi-echo water-fat separation, region-growing algorithm, as well as various imaging methods for tissue fat quantification and R2* relaxation rate. Six contrast images, including in-phase, opposed-phase, water-only, fat-only, fat fraction maps, and R2* maps, were acquired through a single breath-hold scan by collecting signals from six different echo time (TE) values. The images were reconstructed using computer algorithms to obtain the aforementioned contrast images. The IDEAL-IQ hybrid water-fat separation algorithm consisted of two steps. The first step involved complex domain reconstruction to obtain water and fat images, as well as the T2* map. The second step generated an additional set of estimated water and fat images. These two sets of images were then combined using a hybrid algorithm to generate the final water and fat images.
Prior to conducting the experiment, a Phantom test was performed. Five standard fat solutions with known fat content were prepared by modifying the body phantom preparation method used by Clare P. et al.. Pure water was used as 0% fat. Sodium dodecyl sulfate (60 mmol) was dissolved in 1 L of deionized water, heated to 50° C., and then 40 g of gelatin was added and mixed thoroughly. […] of the aforementioned solution, respectively, to prepare solutions with fat contents of 0%, 2.5%, 5%, 10%, 20%, and 100%. These solutions were filled into six 100 ml EP tubes for subsequent scanning procedures.
Phantom validation experiments were performed before each scan. All animals underwent a baseline scan and one additional scan after the completion of the drug administration, totaling two scans. The anesthesia procedure was as follows: intramuscular injection of 10 mg/kg ketamine hydrochloride, endotracheal intubation, and maintenance of anesthesia with isoflurane and oxygen using a ventilator. During the scanning process, veterinary monitoring of electrocardiogramad oxygenation, respiratory rate, etc., was performed, and veterinary supervision was provided until the animals fully recovered consciousness and resumed spontaneous respiration.
Image Post-processing and Analysis: The collected and stored Hepatic steatosis MRI images of Rhesus monkeys were analyzed using the 750W 3T MRI workstation. The liver MRI images were selected by choosing the planes with the maximum exposure of the right hepatic lobe area (layers 1-3), avoiding large blood vessels, bile ducts, and gallbladder to prevent volume effects. Regions of interest (ROI) were selected, with each ROI having an area of 90-110 mm^2. Hepatic steatosis was defined as MRI-PDFF % (Magnetic Resonance Imaging Proton Density Fat Fraction)>6% (consistent with clinical standards).
Fifteen Rhesus monkeys were divided into 3 groups, with 5 monkeys in each group. They received subcutaneous injections of 0 (solvent control, placebo control group), 0.050, or 0.150 mg/kg of YN-011 once a week for 13 weeks (QW). The 0.150 mg/kg YN-011 group received adaptive dosing (0.1 mg/kg for the first dose, followed by 0.150 mg/kg for the remaining 12 doses).

DIO mice = test: High-fat diet-induced obese (DIO) mice
Method: The effects of multiple administrations of YN-011 on glucose tolerance, insulin sensitivity, metabolism, and weight reduction were evaluated in high-fat diet (HFD)-induced obese mice. Male C57BL/6 mice, 5 months old (obtained from commercial sources such as Shanghai Slake Experimental Animals Co., Ltd., under standard housing conditions), were fed with an HFD (60% of total calories from fat, 20% from carbohydrates) for 6 months to establish the diet-induced obesity (DIO) mouse model. The DIO mice (weighing >50 g) were then divided into two groups (5 animals per group), with the experimental group receiving subcutaneous injections of 0.3 mg/kg of YN-011 twice a week (BIW) and the control group receiving phosphate-buffered saline (PBS) injections. The treatment was administered for 4 weeks.

[1] = 0.3 mg/kg sc BIW, 4 weeks, P<0.001

B1: YN-011: GLP-1 fusion protein of SEQ ID NO: 7: GLP-1 (A8G, G22E, R36G), linker peptide and IgG2/Fc domain (C222S, A330S, P331S) (protein)
chain: HGEGTFTSDVSSYLEEQAAKEFIAWLVKGGGSSGAPPPSGGGGSERKSCVECPPCPAPPVAGPSVFLFPPKPKDTLMISRTPEVTCVVVDVSHEDPEVQFNWYVDGVEVHNAKTKPREEQFNSTFRVVSVLTVVHQDWLNGKEYKCKVSNKGLPSSIEKTISKTKGQPREPQVYTLPPSREEMTKNQVSLTCLVKGFYPSDIAVEWESNGQPENNYKTTPPMLDSDGSFFLYSKLTVDKSRWQQGNVFSCSVMHEALHNHYTQKSLSLSPG
Obese rhesus monkeys; 25 μg/kg SC once a week, D 1 baseline value (before administration)
  BW: 12.72 kg
Obese rhesus monkeys; 25 μg/kg SC once a week, D 7
  BW: 12.39 kg
Obese rhesus monkeys; 25 μg/kg SC once a week, D 14
  BW: 12.16 kg
Obese rhesus monkeys; 25 μg/kg SC once a week, D 21
  BW: 12.06 kg
Obese rhesus monkeys; 25 μg/kg SC once a week, D 28
  BW: 11.84 kg
Obese rhesus monkeys; 25 μg/kg SC once a week, D 35
  BW: 12.05 kg
Obese rhesus monkeys; 25 μg/kg SC once a week, D 42
  BW: 12.03 kg
Obese rhesus monkeys; 25 μg/kg, D14 and D21 (P<0.05)
  BW compared to the placebo group: significantly decreased
Obese rhesus monkeys; 25 μg/kg
  body weight decrease compared to baseline: 6.17%
Obese rhesus monkeys; 50 μg/kg SC once a week, D 1 baseline value (before administration)
  BW: 10.29 kg
Obese rhesus monkeys; 50 μg/kg SC once a week, D 7
  BW: 9.85 kg
Obese rhesus monkeys; 50 μg/kg SC once a week, D 14
  BW: 9.64 kg
Obese rhesus monkeys; 50 μg/kg SC once a week, D 21
  BW: 9.63 kg
Obese rhesus monkeys; 50 μg/kg SC once a week, D 28
  BW: 9.52 kg
Obese rhesus monkeys; 50 μg/kg SC once a week, D 35
  BW: 9.79 kg
Obese rhesus monkeys; 50 μg/kg SC once a week, D 42
  BW: 9.81 kg
Obese rhesus monkeys; 50 μg/kg
  body weight decrease compared to baseline: 7.32%
Obese rhesus monkeys; 50 μg/kg, from D7 to D28 (P<0.05 or P<0.01)
  BW compared to the placebo group: significantly or extremely significantly decreased
NASH Rhesus monkeys; 50 μg/kg
  percentage reduction of MRI-PDFF liver fat compared to baseline: 43.8%
NASH Rhesus monkeys; 0.05 mg/kg group, 0.05 mg/kg
  Average ROI Baseline (%) (liver lipid content, MRI-PDFF): 9.0%±0.9% and 9.0 ± 0.9%
NASH Rhesus monkeys; 0.05 mg/kg sc QW, 0.05 mg/kg
  Mean ROI at day 80 of dosing (%) (liver lipid content, MRI-PDFF): 5.0%±0.2% and 5.0 ± 0.2** %
NASH Rhesus monkeys; 0.05 mg/kg sc QW
  Change rate (%) of liver lipid content: −43.8 ± 7.4 %
NASH Rhesus monkeys; 0.15 mg/kg group, 0.15 mg/kg
  Average ROI Baseline (%) (liver lipid content, MRI-PDFF): 9.4%±1.5% and 9.4 ± 1.5%
NASH Rhesus monkeys; 0.15 mg/kg sc QW, 0.15 mg/kg
  Mean ROI at day 80 of dosing (%) (liver lipid content, MRI-PDFF): 5.6%±1.5% and 5.6 ± 1.5** %
NASH Rhesus monkeys; 0.15 mg/kg sc QW
  Change rate (%) of liver lipid content: −39.7 ± 14.2 %
NASH Rhesus monkeys; 150 μg/kg
  percentage reduction of MRI-PDFF liver fat compared to baseline: 39.7%
NASH Rhesus monkeys; after 13 weeks of weekly treatment
  decrease of liver lipid content compared to the placebo control group: approximately 40%
DIO mice
  UcP1 expression in BAT and epididymal WAT: no effect
  Ucp1 expression in inguinal WAT: significantly upregulated
DIO mice; 0.3 mg/kg sc BIW, 4 weeks
  body weight: significantly reduced
  ectopic lipid accumulation and hepatic triglycerides: significantly reduced
  weight of other tissues (BAT, inguinal WAT, pancreas, calf muscle): no impact
DIO mice; 0.3 mg/kg sc BIW, 4 weeks, Ctrl 145.6±16.8, P<0.05
  AST levels: 72.20±19.29
DIO mice; 0.3 mg/kg sc BIW, 4 weeks, Ctrl 153.4±18.7, P<0.01
  serum ALT levels: 34.2±7.7
DIO mice; [1]
  reduction in non-esterified fatty acids (NEFA): 57%
  reduction in total cholesterol (TC): 30%
  reduction in triglycerides (TG): 68%
DIO mice; 0.3 mg/kg sc BIW, 4 weeks, vs PBS control
  visceral fat, particularly epididymal fat content: significant decrease
DIO mice; after 4 weeks of treatment, glucose fluctuation / IPGTT, P<0.01
  blood glucose: significantly reduced
DIO mice; after 4 weeks of treatment, insulin tolerance, P<0.01
  insulin sensitivity: improved insulin sensitivity
DIO mice; at room temperature
  core body temperature: higher core body temperature
DIO mice; during the night
  VO2, VCO2 and EE normalized to body weight: significantly increased
DIO mice; multiple administrations vs control
  food consumption: significant decrease
DIO mice; not normalized, without statistical significance
  metabolic rate (VO2 and VCO2) and energy expenditure (EE): increasing trend
